# Data from patent US20090136940.
# Molecular target: T1, NF-kB p50 (NFKB1) (Homo sapiens) (UniProt P19838)
# T1 sequence: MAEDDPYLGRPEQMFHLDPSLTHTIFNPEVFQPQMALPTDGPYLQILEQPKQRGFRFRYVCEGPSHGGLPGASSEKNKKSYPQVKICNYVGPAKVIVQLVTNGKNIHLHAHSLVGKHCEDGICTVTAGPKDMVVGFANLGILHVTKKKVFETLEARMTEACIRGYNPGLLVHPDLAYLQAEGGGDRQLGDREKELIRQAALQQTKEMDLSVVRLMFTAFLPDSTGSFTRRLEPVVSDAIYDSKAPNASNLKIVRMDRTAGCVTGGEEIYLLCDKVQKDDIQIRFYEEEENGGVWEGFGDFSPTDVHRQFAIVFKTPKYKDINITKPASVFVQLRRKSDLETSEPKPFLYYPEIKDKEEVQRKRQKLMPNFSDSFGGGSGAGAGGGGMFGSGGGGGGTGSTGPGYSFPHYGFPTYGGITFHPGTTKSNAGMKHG
# Assay: EMSA
# Details: saturating p50 monomer (200 nM)
sequence,measurement,setting,value
CGGAAAGTCCCTCATAGCT (double strand) [I (ODN2)/Cy5.5-XIX (ODN3)],binding signal (% fluorescence co-migrating with p50),internucleoside phosphotriester triethylene glycol amino linker after T8 of SEQ 1,94
TGGAAAGCTTTTTACAGTT (double strand) [ODN4/Cy5.5-ODN5],binding signal (% fluorescence co-migrating with p50),"internucleoside phosphotriester triethylene glycol amino linker after T12 of SEQ 2, truncated site",63
